Reference: US20100120171A1

Tests used:
[1] = target: recombinant fragment of human VE-cadherin extracellular region, CAD 1-4 fragment (Asp48-Glu478, preceded by Met), SEQ ID NO: 4 (human) (UniProt P33151); test: sandwich ELISA, BV9 capture, rabbit polyclonal detection; CAD1-4 at 5 ng/mL; mean OD minus OD at 0 ng/mL
[2] = target: recombinant fragment of human VE-cadherin extracellular region, CAD 1-4 fragment (Asp48-Glu478, preceded by Met), SEQ ID NO: 4 (human) (UniProt P33151); test: sandwich ELISA, BV9 capture, rabbit polyclonal detection; CAD1-4 at 1.25 ng/mL
[3] = target: recombinant fragment of human VE-cadherin extracellular region, CAD 1-4 fragment (Asp48-Glu478, preceded by Met), SEQ ID NO: 4 (human) (UniProt P33151); test: sandwich ELISA, BV9 capture, rabbit polyclonal detection; CAD1-4 at 2.5 ng/mL
[4] = target: recombinant fragment of human VE-cadherin extracellular region, CAD 1-4 fragment (Asp48-Glu478, preceded by Met), SEQ ID NO: 4 (human) (UniProt P33151); test: sandwich ELISA, BV9 capture, rabbit polyclonal detection; CAD1-4 at 0.63 ng/mL
[5] = target: recombinant fragment of human VE-cadherin extracellular region, CAD 1-4 fragment (Asp48-Glu478, preceded by Met), SEQ ID NO: 4 (human) (UniProt P33151); test: sandwich ELISA, BV9 capture, rabbit polyclonal detection; CAD1-4 at 0.63 ng/mL; mean OD minus OD at 0 ng/mL
[6] = target: recombinant fragment of human VE-cadherin extracellular region, CAD 1-4 fragment (Asp48-Glu478, preceded by Met), SEQ ID NO: 4 (human) (UniProt P33151); test: sandwich ELISA, BV9 capture, rabbit polyclonal detection; CAD1-4 at 1.25 ng/mL; remark: listed apart in the source
[7] = target: recombinant fragment of human VE-cadherin extracellular region, CAD 1-4 fragment (Asp48-Glu478, preceded by Met), SEQ ID NO: 4 (human) (UniProt P33151); test: sandwich ELISA, BV9 capture, rabbit polyclonal detection; CAD1-4 at 1.25 ng/mL; second replicate
[8] = target: recombinant fragment of human VE-cadherin extracellular region, CAD 1-4 fragment (Asp48-Glu478, preceded by Met), SEQ ID NO: 4 (human) (UniProt P33151); test: sandwich ELISA, BV9 capture, rabbit polyclonal detection; CAD1-4 at 0.63 ng/mL; remark: listed apart in the source
[9] = target: recombinant fragment of human VE-cadherin extracellular region, CAD 1-4 fragment (Asp48-Glu478, preceded by Met), SEQ ID NO: 4 (human) (UniProt P33151); test: sandwich ELISA, BV9 capture, rabbit polyclonal detection; CAD1-4 at 10 ng/mL; second replicate
[10] = target: recombinant fragment of human VE-cadherin extracellular region, CAD 1-4 fragment (Asp48-Glu478, preceded by Met), SEQ ID NO: 4 (human) (UniProt P33151); test: sandwich ELISA, BV9 capture, rabbit polyclonal detection; CAD1-4 at 1.25 ng/mL; mean OD minus OD at 0 ng/mL
[11] = target: recombinant fragment of human VE-cadherin extracellular region, CAD 1-4 fragment (Asp48-Glu478, preceded by Met), SEQ ID NO: 4 (human) (UniProt P33151); test: sandwich ELISA, BV9 capture, rabbit polyclonal detection; CAD1-4 at 0.63 ng/mL; second replicate
[12] = target: recombinant fragment of human VE-cadherin extracellular region, CAD 1-4 fragment (Asp48-Glu478, preceded by Met), SEQ ID NO: 4 (human) (UniProt P33151); test: sandwich ELISA, BV9 capture, rabbit polyclonal detection; CAD1-4 at 5 ng/mL

Chain of UniProt P33151 (P33151 other isoform, or with tags, fused parts or gaps limits assumed): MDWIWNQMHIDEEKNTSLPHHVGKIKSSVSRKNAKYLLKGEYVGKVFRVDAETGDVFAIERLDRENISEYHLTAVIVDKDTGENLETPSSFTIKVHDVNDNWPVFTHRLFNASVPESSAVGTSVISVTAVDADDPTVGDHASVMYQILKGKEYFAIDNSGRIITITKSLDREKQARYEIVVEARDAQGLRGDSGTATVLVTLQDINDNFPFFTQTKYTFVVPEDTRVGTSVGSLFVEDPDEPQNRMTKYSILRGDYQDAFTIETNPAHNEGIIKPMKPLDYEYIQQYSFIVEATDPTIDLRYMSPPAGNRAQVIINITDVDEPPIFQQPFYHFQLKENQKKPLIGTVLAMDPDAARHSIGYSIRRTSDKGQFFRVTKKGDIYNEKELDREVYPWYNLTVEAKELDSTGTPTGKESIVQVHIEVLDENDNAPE

Corr. OD [1]: 0.556 OD
OD1 [2]: 0.867 OD
OD2 [2]: 0.829 OD
mean OD [2]: 0.848 OD
mean OD [3]: 1.17 OD
mean OD [4]: 0.937 OD
Corr. OD [5]: 0.051 OD
mean OD [6]: 1 OD
OD [7]: 0.932 OD
OD1 [8]: 0.794 OD
OD2 [8]: 0.789 OD
mean OD [8]: 0.792 OD
OD [9]: 2 OD
Corr. OD [10]: 0.143 OD
OD [11]: 0.899 OD
OD1 [12]: 1.31 OD
OD2 [12]: 1.21 OD
mean OD [12]: 1.26 OD
Substance: anti-VEcadherin mouse mAb, clone BV9 (Abcam, product datasheet ab7047) (antibody)
